Like-named read-outs stand apart in the source and are kept apart here.
Tests used:
human RANKL protein [1] = target: T1, human RANKL protein (human, UniProt O14788 140-317, limits assumed); test: cell-based or functional assay
T1 sequence (looked up): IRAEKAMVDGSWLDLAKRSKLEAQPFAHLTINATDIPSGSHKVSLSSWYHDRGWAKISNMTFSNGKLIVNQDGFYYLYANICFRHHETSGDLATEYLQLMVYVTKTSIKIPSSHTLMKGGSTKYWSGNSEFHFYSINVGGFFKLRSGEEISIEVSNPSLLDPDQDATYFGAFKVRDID

[2] = target: T2, RANKL expressed on the surface of 293 cells (UniProt O14788 1-317, limits assumed); test: flow cytometry (MFI) on RANKL-transfected 293 cells
T2 construct: whole, on cells; also called RANKL-transfected 293 cells; cells expressing RANKL
T2 sequence (looked up): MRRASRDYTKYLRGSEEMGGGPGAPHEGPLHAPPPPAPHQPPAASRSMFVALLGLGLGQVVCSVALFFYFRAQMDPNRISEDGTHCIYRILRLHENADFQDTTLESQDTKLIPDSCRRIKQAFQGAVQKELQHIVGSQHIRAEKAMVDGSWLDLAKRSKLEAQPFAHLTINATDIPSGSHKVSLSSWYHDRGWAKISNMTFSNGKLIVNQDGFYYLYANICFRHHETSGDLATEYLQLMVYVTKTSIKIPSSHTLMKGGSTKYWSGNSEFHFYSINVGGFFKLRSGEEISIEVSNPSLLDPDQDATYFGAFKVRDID

[3] = target: T2, RANKL expressed on the surface of 293 …; test: as above; remark: listed apart in the source
human RANKL protein [4] = target: T1, human RANKL protein; test: competition ELISA: RANKL (0.5 ug/ml) pre-incubated with the antibody, then binding to coated RANK (8 ug/ml) detected; blocked partner RANK [table at the lower right]
human RANKL protein [5] = target: T1, human RANKL protein; test: surface plasmon resonance
human RANKL protein [6] = target: T1, human RANKL protein; test: competition ELISA: RANKL (0.5 ug/ml) pre-incubated with the antibody, then binding to coated human RANK (8 ug/ml) detected; blocked partner RANK
[7] = target: T2, RANKL expressed on the surface of 293 …; test: flow cytometry (MFI) on RANKL-transfected 293 cells; remark: listed apart in the source
[8] = target: T2, RANKL expressed on the surface of 293 …; test: as above; remark: listed apart in the source
human RANKL protein [9] = target: T1, human RANKL protein; test: competition ELISA: RANKL (0.5 ug/ml) pre-incubated with the antibody, then binding to coated human RANK (8 ug/ml) detected; blocked partner RANK; remark: listed apart in the source
human RANKL protein [10] = target: T1, human RANKL protein; test: as above; remark: listed apart in the source
[11] = target: T2, RANKL expressed on the surface of 293 …; test: flow cytometry (MFI) on RANKL-transfected 293 cells; remark: listed apart in the source
human RANKL protein [12] = target: T1, human RANKL protein; test: competition ELISA: RANKL (0.5 ug/ml) pre-incubated with the antibody, then binding to coated human RANK (8 ug/ml) detected; blocked partner RANK; remark: listed apart in the source
human RANKL protein [13] = target: T1, human RANKL protein; test: ELISA on RANKL protein (OD450nm)

B1: clone EBI-51-22 rabbit anti-RANKL antibody (antibody, V domains shown)
VH: QSVEESGGRLVTPGTLLTLTCTVSGFSLSTDVLSWVRQAPGKGLEWIGYTWSGGSTYYASWAKGRFTISKTSSTTVDLKITSPTTEDTATYFCARGFNPFDPWGPGTLVTVSS
VL: DMTQTPASVSDPVGGTVTIKCQASQNIGSNLAWYQQKPGQRPKLLIYRASTLASGVSSRFKGSGSGTQFTLTISDLECADAATYYCQQGYSAGNVDNNAFGGGTEVVVK
Human RANKL protein [1]
  IC50 in a RAW cell assay (TRAP activity, OD 405 nM): 0.0036 µg/mL
[2]
  EC50: 0.4 µg/mL
[3]
  EC50: 0.083 µg/mL
Human RANKL protein [4]
  IC50: 0.083 µg/mL
Human RANKL protein [5]
  Kd: 0.312 nM
  koff: 0.000275 s⁻¹
  kon: 880000 M⁻¹ s⁻¹
Human RANKL protein [6]
  IC50: 0.0439 µg/mL

B2: clone 23 rabbit anti-RANKL antibody (antibody, V domains shown)
VH: QEQLKESGGGLVTPGGTLTLTCTASGFSLSSDGMSWVRQAPGKGLEWIGYIYSGSSPYYANWAKGRFTISKTSSTTVDLKMTSLTTEDTATYFCARHGSGGGWYLDIWGPGTLVTVSS
VL: AYDMIQTPASVEVAVGGTVTINCQASQTIGTNLAWYQQKPGQRPKLLIYAASTLPSGVSSRFKGSGSGTQFTLTISDVECSDAATYYCQQAYSVGNVDNAFGGGTEVVVK
notes: also called RabMAb 23; parent 23 rabbit antibody
Human RANKL protein [1]
  IC50 in a RAW cell assay (TRAP activity, OD 405 nM): 0.00171 µg/mL
[7]
  EC50: 0.1 µg/mL
[8]
  EC50: 0.0903 µg/mL
Human RANKL protein [4]
  IC50: 0.041 µg/mL
Human RANKL protein [9]
  IC50: 0.0111 µg/mL
Human RANKL protein [5]
  Kd: 0.162 nM
  koff: 0.000154 s⁻¹
  kon: 950000 M⁻¹ s⁻¹

B3: clone 547 rabbit anti-RANKL antibody (antibody, V domains shown)
VH: QEQLKESGGGLVTPGGTLTLTCTASGFSLSSNGMSWVRQAPGKGLEWIGYIYSGSSPYYASWAKGRFTISKTSSTTVDLKMTSLTTEDTAKYFCARHVSGGGWYLDIWGPGTLVTVSL
VL: DMIQTPASVEVAVGGTVTINCQASQSIGSNLAWYQQKPGQRPKLLIYGASTLASGVSSRVKGSGSGTQFTFTISDVECTDAATYYCQQAYSISNVDNAFGGGTEVVVK
Human RANKL protein [10]
  IC50: 0.0812 µg/mL
[11]
  EC50: 0.398 µg/mL

B4: humanized clone 408 anti-RANKL antibody (antibody, V domains shown)
VH: EVQLVESGGGLVQPGGSLRLSCAVSGFSLSTDVVSWVRQAPGKGLEWIGYTWNGGATFYASWAKGRFTFSKDSSKNTVYLQMNSPRAEDTAVYFCARGYNGMDPWGPGTLVTVSS
VL: DIQMTQSPSSLSASVGDRVTIKCQASQNIGSNLAWYQQKPGKPPKLLISKASTLASGVPSRFSGSGSGTDFTLTISSLQPEDFATYYCQQGYTTKNVVNPFGGGTKVEIK
[2]
  EC50: 0.731 µg/mL
Human RANKL protein [4]
  IC50: 0.096 µg/mL

B5: humanized clone EBI-51-22 anti-RANKL antibody (antibody, V domains shown)
VH: EVQLVESGGGLVQPGGSLRLSCAVSGFSLSTDVLSWVRQAPGKGLEWIGYTWSGGSTYYASWAKGRFTISKDSSKNTVYLQMNSPRAEDTAVYFCARGFNPFDPWGPGTLVTVSS
VL: DIQMTQSPSSLSASVGDRVTIKCQASQNIGSNLAWYQQKPGKRPKLLIYRASTLASGVPSRFSGSGSGTDFTLTISSLQPEDFATYYCQQGYSAGNVDNNAFGGGTKVEIK
notes: also called humanized EBI-51-22; humanized EBI51-22
[2]
  EC50: 0.361 µg/mL
Human RANKL protein [4]
  IC50: 0.127 µg/mL

B6: clone 476 rabbit anti-RANKL antibody (antibody, V domains shown)
VH: QSLEESGGGLVQPEGSPTLTCTAYLIDFSRYGYMCWVRQAPGKGLEWIGCIHAGRSGRTYYANWAKGRFTISKTSSTTVTLQMTSLTAADTATYFCAKSGDSYVGYFALWGPGTLVTVSS
VL: DIVMTQTPASVEAAVGGTVTIKCQASENIYNYLSWYQQKPGQPPKLLIYEASKLASGVSSRFKGSGSGTEFTLTISDLECADAATYYCQSYYDVTSHSYDNPFGGGTEVVVS
Human RANKL protein [10]
  IC50: 0.0301 µg/mL
[11]
  EC50: 0.0632 µg/mL

B7: clone 408 rabbit anti-RANKL antibody (antibody, V domains shown)
VH: QSVEESGGRLVTPGTPLTLTCTVSGFSLSTDVVSWVRQAPGKGLEWIGYTWNGGATFYASWAKGRFTFSKTSTTVDLKITSPTTEDTATYFCARGYNGMDPWGPGTLVTVSS
VL: DMTQTPASVEAAVGGAVTIKCQASQNIGSNLAWYHQKPGQPPKLLISKASTLASGVPSRFKGSGSGTEFTLAISDLECADAATYYCQQGYTTKNVVNPFGGGTEVVVK
Human RANKL protein [1]
  IC50 in a RAW cell assay (TRAP activity, OD 405 nM): 0.00644 µg/mL
[2]
  EC50: 0.303 µg/mL
Human RANKL protein [4]
  IC50: 0.098 µg/mL
Human RANKL protein [12]
  IC50: 0.058 µg/mL
Human RANKL protein [5]
  Kd: 0.432 nM
  koff: 0.000262 s⁻¹
  kon: 607000 M⁻¹ s⁻¹
[11]
  EC50: 0.0898 µg/mL

B8: clone 480 rabbit anti-RANKL antibody (antibody, V domains shown)
VH: QSLEESGGRLVTPGGSLTLTCTVSGFSLSNYEINWVRQAPGKGLEWIGYIDVGSGTWYASWAKGRFTISKTSTTVDLKITSPTTGDTATYFCSRSYNPMDLWGPGTLVTVSS
VL: DMTQTPASVEVAVGGTVTIKCQASQNIGSNLAWYQQKPGQRPKLLIYSASTLASGVPSRFKGSGSGTQFTLTISGVQCDDAATYYCQQGYSVGNVNNAFGGGTEVVVK
Human RANKL protein [10]
  IC50: 0.0284 µg/mL
[11]
  EC50: 0.172 µg/mL

B9: humanized clone 23 antibody, VH 23HZD-1 HC with humanized VL 23 Vk (antibody, V domains shown)
VH: EVQLVESGGGLVQPGGSLRLSCAASGFSLSSDGMSWVRQAPGKGLEWIGYIYSGSSPYYANWAKGRFTISKDSSKNTVYLQMNSLRAEDTAVYFCARHGSGGGWYLDIWGPGTLVTVSS
VL: DIQMTQSPSSLSASVGDRVTINCQASQTIGTNLAWYQQKPGKRPKLLIYAASTLPSGVPSRFSGSGSGTDFTLTISSLQPEDFATYYCQQAYSVGNVDNAFGGGTKVEIK
notes: also called humanized 23 Vk; 23LHZD
[7]
  EC50: 0.414 µg/mL
Human RANKL protein [4]
  IC50: 0.112 µg/mL

B10: humanized clone 23 antibody, VH 23HZD-1 HC with humanized VL 23 Vkb, IgG1 (antibody, V domains shown)
VH: EVQLVESGGGLVQPGGSLRLSCAASGFSLSSDGMSWVRQAPGKGLEWIGYIYSGSSPYYANWAKGRFTISKDSSKNTVYLQMNSLRAEDTAVYFCARHGSGGGWYLDIWGPGTLVTVSS
VL: DIQMTQSPSSLSASVGDRVTINCQASQSIGSNLAWYQQKPGKRPKLLIYAASTLPSGVPSRFSGSGSGTDFTLTISSLQPEDFATYYCQQAYSVGNVDNAFGGGTKVEIK
notes: also called h23 IgG1
Human RANKL protein [13]
  EC50: 0.0425 µg/mL

B11: h23n IgG2 humanized clone 23 antibody (antibody, V domains shown)
VH: QEQLVESGGGLVQPGGSLRLSCVASGFSLSSDGMSWVRQAPGKGLEWIGYIYSGSSPYYANWAKGRFTISKDSSTNTVFLQMNSLRAEDTAVYFCARHGDGGGWYLDIWGPGTLVTVSS
VL: DIQMTQSPSSLSASVGDRVTINCQASQSIGSNLAWYQQKPGKAPKLLIYAASTLPSGVSSRFSGSGSGTDFTLTINSLEAEDAATYYCQQAYSVGNVDNAFGGGTKVEIK
notes: IgG2; also called h23n VH and VL
Human RANKL protein [13]
  EC50: 0.0117 µg/mL

B12: humanized clone 23 antibody, VH 23HZD-1 HC with humanized VL 23 Vkb, IgG2 (antibody, V domains shown)
VH: EVQLVESGGGLVQPGGSLRLSCAASGFSLSSDGMSWVRQAPGKGLEWIGYIYSGSSPYYANWAKGRFTISKDSSKNTVYLQMNSLRAEDTAVYFCARHGSGGGWYLDIWGPGTLVTVSS
VL: DIQMTQSPSSLSASVGDRVTINCQASQSIGSNLAWYQQKPGKRPKLLIYAASTLPSGVPSRFSGSGSGTDFTLTISSLQPEDFATYYCQQAYSVGNVDNAFGGGTKVEIK
notes: also called humanized 23 vkb; humanized 23 VKB
[7]
  EC50: 0.947 µg/mL
Human RANKL protein [4]
  IC50: 0.081 µg/mL
Human RANKL protein [13]
  EC50: 0.0238 µg/mL

Reference: patent publication US20160032001A1 (APEXIGEN, published 2016)
